Assay results as given in the DeepSol protein solubility set.

Assay: soluble on expression in E. coli; label from the status in PepcDB or PDB records

Sequence	soluble on expression in E. coli
MGSSHHHHHHSSGLVPRGSEELQNKLEDVVIDRNLLILGKILGEGEFGSVMEGNLKQEDGTSLKVAVKTMKLDNSSQREIEEFLSEAACMKDFSHPNVIRLLGVCIEMSSQGIPKPMVILPFMKYGDLHTYLLYSRLETGPKHIPLQTLLKFMVDIALGMEYLSNRNFLHRDLAARNCMLRDDMTVCVADFGLSKKIYSGDYYRQGRIAKMPVKWIAIESLADRVYTSKSDVWAFGVTMWEIATRGMTPYPGVQNHEMYDYLLHGHRLKQPEDCLDELYEIMYSCWRTDPLDRPTFSVLRLQLEKLLESLPDV	soluble
GPGSMSKSRRDVNKVQIGYHRAENTETVSSPHTYAYSSGKSAPSTTKPDRPTVSNIRIASAVAGLPPSRFAANASVKREKNDEESESPTAAASSVSSSLLHGAASEARTTVDGFPWSTRRVERMSFEMQNVSPPIANLLRRVLTTEVPTLAFDRVLIEENDSPVLDELLSHRLGLVPVAGPVMKMHYITESNQASFSNLDPSRVLLFELDATGAKDAAVTPVYSGQLQWVPLPGQDKTAGAVAVACQAGREECAGAAGATDHSADEDDDAVFLVHPDILLTKLGPGQRIKLKAIAVKGFGAVHAKWSPVSACYYEMKTSVELCERLTGSAAEALIKSCPAGVFGYEGGQRGAAATVVAPEKCTLCRECLRSEDKGAEAAANKGDRVRVQKDKTHVLFHIESVGQLHPAQILRFGLRLFAERCRALAEMVQSTEVHVVDASAKSLEL	not soluble
MGSDKIHHHHHHMQEIVDQLAATIRAAAASNVPLRIRSGGTKDFYGQQDKGRDVAPEGILDPTAFAGIVDYEPTELVVTARTGTPLAQLETELNGRGQMLAFEPPHFGAGATLGGCIAAGLSGPRRASAGAVRDFVLGVRMLDGRGDDLSFGGRVMKNVAGYDIPRLMAGSLGTLGLLLEVSLKVLPLPAEERTLRLSMNEAVAIETMNRWAGKPLPVSATCFCEGELTVRLSGATSAVRAARAVLGGEEIVENSSFWKSIREQVHPFFRSGKQLWRLSIKSTTAPLSLPGKQLIEWGGAVRWLSVDAEMDNDAVETLVRKTAKEAGGHATLFRSRTPAAAVFHPLPPAMMNIHRQLKEKFDPMRIFNRGRLYPEL	not soluble
DRLTEEYGMHVYGIEFDEDRIIELRDRGYRIVAGDVTDPELWRRIELLDIPQLFAMSLPRYTDSDKVLARIHHDYPGATVATITQTRGREQALLTAGADVAVYLYEGVGDELADQAVAHLRQG	not soluble
MFAIAHNSILRDSLAGILQLSPERVFDEYRPPPFTGNIVVGVEDLRDANLRFAVRYFLANVEKSISLFIVKQEWSENDEKFFDDLVKTEYRRAHDLNQVAIDRVNKLPDNEWKSDRLEQLNEWRTIPAINYSLLTLNDNLKNQIDALAKVTPCTISDDEEQITNKPPVLHWTADPLEGEIQFIAQLNFPLSGPDDSSFREICRLLKPHFETSYEWTGGILLTSDPVRLHVQRFNDTQIELAARICVDELEGDEADRPIRFIWPYLAVSLKQALQVLGEHPHLQYSISFVPFGSIFFKSSEIEARVFDATVFCSTALKYDKVGFRVGEDVHHVDIAHIFPDGTYPSLSRLLSMNPPSPRFSRPESVNDSVSPSLMSEPPTPGGLVAPHNRGRRVSFGTIKLMSDGPTTPEIPILNGNSNDGSAKTVDAFIDKMLQQTMDQLAV	not soluble
MPEYSSVTGLEGVKFAPLKKENGFYVATKIIDYPYAINAKVNTETSTEKQYADNKLVDMAVTTGSTKLELEMRDLPMEILEELFGIEETDGIYMFKKNVIAPWVAMSFYGPKANGKNRHVGLVKGRFSLPDDEWKTKEEKTDFQTVKLSAEFMEREQDNAYKVLADEDAPNFNLDKFYEKVFGNAYKNPDSGSDNKSSVDIGKTVLEHHHHHH	soluble
MSKGHSLQDPYLNTLRKERVPVSIYLVNGIKLQGQIESFDQFVILLKNTVSQMVYKHAISTVVPSRPVRLPSGDQPAEPGNA	soluble
MSLYISYSPLRITFGGGGTDVEPFLSKHGGAVVNATIDRGVSVRYIEDEFQLELSSRDFVRSYIVNMHRAASVTKMMADFLSEAGITNGRVIMSGDAPPGSGLGSSSSAVSALMNLVNSIRGRTVDPATLAEESYNLERNHFHVVLGKQDPYAIAYGGFKYMEFGADGVKREDLGQYSEFTTELQRRILLVYTGKTRQSSEVLMEQVKASEMGDEKTDRNLLQMKDVARRLRDAVVKNDMDEFAHQINRGWEIKKSLSSRITNDHIDRIIALALSNGAQAARLMGGGSQGFVLVMCKPENLNYIQRRMMSISNFVVRTSFDMKGTRMIGHEGHHHHHH	not soluble
MSLKLIGMLDSPYVRRVAISLKSLGLPFEHHSLSVFSTFEQFKAINPVVKAPTLVCEGGEVLMDSSLIIDYLETLAGPQRSLMPTALPQRLRELRLVGLALAACEKSVQIVYERNLRPAEKQHGPWLERVGGQLQAAYGELEQELQKQPLPRDGSLGQAGISLAVAWSFSQMMVADQFNPGQFPAVRGFAEYAEQLPVFLATPATEGHHHHHH	soluble
MAHHHHHHMAVSSARESVTDLLSGREDVRTVSSSTMAQESTTIKTGELGEDGGGDGVISDRSNVLARVFEELLDAEVSMNPAKLREASRAGIPSLYRSTVYRYLLGITFVDHSREMSLERMQEKDFEQLLTAFGRIVASDGTGQRPSVKGRIMQPLASPRLHDSETIPLITRDESQFANGYRCSDRSFSVGYAAWIKFRANLRYLPRFVGNPERRQRMECAWQALHVTSSGATPDEVENLFELALVFESVHGTARDIYFSTSSLYYLLTHHGNVLQNAQCLQRMCGTFLMLFRATNFDLYRHFVAESVTAVEWLPGMLKTLLAGRLHEEDLLRLWDVYLADALEYLGFPLHPYVCLAILEEMTEVLLECEKSGIIERLRHLPRIEAGSIIQKAISLKESVFSKDLL	not soluble
MITIDLHTHTSHSHGQATVQEMFEAGCARGLLVHGFSEHSPRPSGYDYPKDYRDKLTRSFPDYVEQVRTLAATYAPERTVLLGLEMDWLPGQEPFIDATIHRYDYDYVIGGIHFLGTWGFDYTPDDWQGFSPEQTADIYVRYFESLRRMAASGMFDIAAHPDIIKIFSAAAFHDWLATDKAKAVVRDALETMHTAGMAMEISSAGLRKPCKEIYPCPDIMRMAADIGLPVTFGSDAHCVNTIGWGFDTLADYARGFGYTRSVWMRRGERFERPFLEHHHHHH	soluble
MNYNNKILVSESGLSQKHLIHGDEELFQHELKTIFARNWLFLTHDSLIPAPGDYVTAKMGIDEVIVSRQNDGSIRAFLNVCRHRGKTLVSVEAGNAKGFVCSYHGWGFGSNGELQSVPFEKDLYGESLNKKCLGLKEVARVESFHGFIYGCFDQEAPPLMDYLGDAAWYLEPMFKHSGGLELVGPPGKVVIKANWKAPAENFVGDAYHVGWTHASSLRSGESIFSSLAGNAALPPEGAGLQMTSKYGSGMGVLWDGYSGVHSADLVPELMAFGGAKQERLNKEIGDVRARIYRSHLNCTVFPNNSMLTCSGVFKVWNPIDANTTEVWTYAIVEKDMPEDLKRRLADSVQRTVGPAGFWESDDNDNMETASQNGKKYQSRDSDLLSNLGFGEDVYGDAVYPGVVGKSAIGETSYRGFYRAYQAHVSSSNWAEFEHASSTWHTELTKTTDR	soluble
GHMNVKLKVFHAGSLTEPMKAFKRAFEEKHPNVEVQTEAAGSAATIRKVTELGRKADVIATADYTLIQKMMYPEFANWTIMFAKNQIVLAYRNDSRYADEINSQNWYEILKRPDVRFGFSNPNDDPCGYRSLMAIQLAELYYNDPTIFDELVAKNSNLRFSEDNGSYVLRMPSSERIEINKSKIMIRSMEMELIHLVESGELDYFFIYKSVAKQHGFNFVELPVEIDLSSPDYAELYSKVKVVLANGKEVTGKPIVYGITIPKNAENRELAVEFVKLVISEEGQEILRELGQEPLVPPRADTAVPSLKAMVEVS	soluble
GPGSMSSIPVDVLNAVTQCNEKVTAVEKEIEEFTNQVRIDFRSKIEPLFDKRHLELEKIEGFWGSAFVAVESPLMGLLNGTIDPKIVRALTDFRVKTSVRDGSICRCVSVTFRPNMFVKEGTFSRELDPSVNTLSLQPILWKPGTEKARTDSLFRFFSPECKDIEFLERALTEFDELFQNPLLAFE	not soluble
MTSPYATIVDAREFNAPMFAEKIDRALRAGEKDAVVNVITSISNAQRQQLREPYKLKYGKDIIQALDKKFSGDLEKAIFALMETPLDYDVKQLKAAMKGLGTDEAVLIEILCSRTVDQLRAIRVTYEKEYGKALEADIAGDTSGEFRDLLVSLVTGSKDGSHDTNDAQAKDDAVRLFADGKAKLAKKDGTHFLHILATQNQYQLRKVFAYFQELAGGSIEKSIEKEFSGDLQKSYLTIVRAASDKQKFFAQQLHASMKGLGTRDNDLIRVIVTRSEVDLELIKAEFQELYSKSLADTVKGDTSGAYRDALLSIINGNHATAH	not soluble
